In publication PMC9482650, “Quantitative fragmentomics allow affinity mapping of interactomes” (Nature Communications, 2022):

T1: SNTA1, Q13424
T1 sequence (Q13424 82-180, limits assumed, looked up): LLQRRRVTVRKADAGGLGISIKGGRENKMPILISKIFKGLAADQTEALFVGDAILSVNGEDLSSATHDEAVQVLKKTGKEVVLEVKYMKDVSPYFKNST

T2: SYNJ2BP, P57105
T2 sequence (P57105 8-110, limits assumed, looked up): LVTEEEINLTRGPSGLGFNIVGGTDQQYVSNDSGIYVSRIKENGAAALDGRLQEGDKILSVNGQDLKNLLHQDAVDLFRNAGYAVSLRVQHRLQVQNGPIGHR

T3: PCLO, Q9Y6V0
T3 sequence (Q9Y6V0 4491-4600, limits assumed, looked up): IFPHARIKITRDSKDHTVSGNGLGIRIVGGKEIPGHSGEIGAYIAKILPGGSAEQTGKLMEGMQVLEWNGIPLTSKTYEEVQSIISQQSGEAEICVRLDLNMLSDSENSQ

T4: PARD3B_1, Q8TEW8
T4 sequence (Q8TEW8 196-299, limits assumed, looked up): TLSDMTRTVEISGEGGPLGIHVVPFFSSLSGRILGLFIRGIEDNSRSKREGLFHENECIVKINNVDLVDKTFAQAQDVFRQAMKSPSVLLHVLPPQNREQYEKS

T5: HTRA3, P83110
T5 sequence (P83110 354-453, limits assumed, looked up): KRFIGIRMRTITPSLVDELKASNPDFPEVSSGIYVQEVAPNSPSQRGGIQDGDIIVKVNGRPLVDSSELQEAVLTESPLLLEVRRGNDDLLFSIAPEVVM

T6: ARHGEF11, O15085
T6 sequence (O15085 42-136, limits assumed, looked up): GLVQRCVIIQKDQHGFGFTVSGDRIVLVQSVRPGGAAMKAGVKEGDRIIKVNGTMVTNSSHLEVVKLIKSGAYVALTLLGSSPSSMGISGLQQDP

T7: SNTG1, Q9NSN8
T7 sequence (Q9NSN8 52-150, limits assumed, looked up): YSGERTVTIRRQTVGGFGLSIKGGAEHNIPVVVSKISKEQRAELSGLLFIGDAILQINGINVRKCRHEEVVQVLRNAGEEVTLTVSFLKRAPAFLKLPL

T8: HTRA4, P83105
T8 sequence (P83105 378-476, limits assumed, looked up): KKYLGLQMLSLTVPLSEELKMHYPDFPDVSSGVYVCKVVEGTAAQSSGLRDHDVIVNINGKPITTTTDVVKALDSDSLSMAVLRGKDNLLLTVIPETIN

T9: SIPA1L2, Q9P2F8
T9 sequence (Q9P2F8 945-1036, limits assumed, looked up): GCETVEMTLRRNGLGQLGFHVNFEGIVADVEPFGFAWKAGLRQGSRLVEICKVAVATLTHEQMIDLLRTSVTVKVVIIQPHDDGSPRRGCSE

T10: LNX2_3, Q8N448
T10 sequence (Q8N448 463-564, limits assumed, looked up): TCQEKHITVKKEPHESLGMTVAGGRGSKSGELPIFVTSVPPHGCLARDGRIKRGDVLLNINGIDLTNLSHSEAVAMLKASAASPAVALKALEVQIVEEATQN

T11: MPP7, Q5T2T1
T11 sequence (Q5T2T1 134-230, limits assumed, looked up): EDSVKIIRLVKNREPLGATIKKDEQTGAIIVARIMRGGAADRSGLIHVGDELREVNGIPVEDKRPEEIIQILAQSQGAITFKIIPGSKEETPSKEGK

T12: SNTG2, Q9NY99
T12 sequence (Q9NY99 68-166, limits assumed, looked up): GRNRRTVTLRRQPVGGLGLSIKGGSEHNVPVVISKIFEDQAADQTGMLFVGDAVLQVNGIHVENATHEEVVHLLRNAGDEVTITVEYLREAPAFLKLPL


What was measured:
Test in all cases: holdup assay
Design in all cases: key: below the threshold = too weak to quantify, mostly under pKd 3.1 to 4
Settings in all cases: plain residues with an end cap or a label only (N-terminal biotin on a linker: ado-ado)
[1] = biological target: T1, SNTA1, Q13424
[2] = biological target: T2, SYNJ2BP, P57105
[3] = biological target: IL16_1, Q14005
Sequence of IL16_1, Q14005 (Q14005 210-306): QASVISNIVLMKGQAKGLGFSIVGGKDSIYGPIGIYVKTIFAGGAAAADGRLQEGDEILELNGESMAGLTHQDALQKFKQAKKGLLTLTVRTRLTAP

[4] = biological target: T3, PCLO, Q9Y6V0
[5] = biological target: TJP1_2, Q07157
Sequence of TJP1_2, Q07157 (Q07157 181-274): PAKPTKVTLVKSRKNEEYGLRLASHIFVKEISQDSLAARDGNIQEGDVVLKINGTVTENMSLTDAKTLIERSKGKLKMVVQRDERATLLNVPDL

[6] = biological target: T4, PARD3B_1, Q8TEW8
[7] = biological target: Inadl_4, Q8NI35
Sequence of Inadl_4, Q8NI35 (Q8NI35 547-651): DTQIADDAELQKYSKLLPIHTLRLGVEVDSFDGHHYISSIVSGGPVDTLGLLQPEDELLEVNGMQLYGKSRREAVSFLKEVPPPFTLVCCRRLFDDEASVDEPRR

[8] = biological target: Inadl_3, Q8NI35
Sequence of Inadl_3, Q8NI35 (Q8NI35 359-469): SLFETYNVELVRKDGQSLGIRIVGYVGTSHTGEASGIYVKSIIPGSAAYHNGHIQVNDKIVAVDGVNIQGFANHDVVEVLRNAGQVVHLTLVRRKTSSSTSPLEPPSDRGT

[9] = biological target: MAST1, Q9Y2H9
Sequence of MAST1, Q9Y2H9 (Q9Y2H9 962-1065): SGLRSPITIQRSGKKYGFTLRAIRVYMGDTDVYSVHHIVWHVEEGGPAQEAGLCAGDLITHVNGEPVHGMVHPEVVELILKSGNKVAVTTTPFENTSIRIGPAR

[10] = biological target: PARD3_3, Q8TEW0
Sequence of PARD3_3, Q8TEW0 (Q8TEW0 582-685): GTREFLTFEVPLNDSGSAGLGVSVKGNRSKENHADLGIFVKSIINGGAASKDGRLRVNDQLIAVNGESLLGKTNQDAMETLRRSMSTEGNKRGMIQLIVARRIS

[11] = biological target: SCRIB_2, Q14160
Sequence of SCRIB_2, Q14160 (Q14160 857-960): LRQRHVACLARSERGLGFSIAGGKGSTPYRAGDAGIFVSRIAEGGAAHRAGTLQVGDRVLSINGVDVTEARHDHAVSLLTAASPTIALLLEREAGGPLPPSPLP

[12] = biological target: ARHGEF12, Q9NZN5-2
Sequence of ARHGEF12, Q9NZN5-2 (Q9NZN5 other isoform, or with tags, fused parts or gaps): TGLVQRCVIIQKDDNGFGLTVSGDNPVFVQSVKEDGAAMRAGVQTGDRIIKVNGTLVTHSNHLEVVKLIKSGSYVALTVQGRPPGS

[13] = biological target: NHERF2_2, Q15599
Sequence of NHERF2_2, Q15599 (Q15599 142-238): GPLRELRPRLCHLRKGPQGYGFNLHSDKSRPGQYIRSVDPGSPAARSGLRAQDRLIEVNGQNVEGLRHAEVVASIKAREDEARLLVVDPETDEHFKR

[14] = biological target: NHERF4_1, Q86UT5-2
Sequence of NHERF4_1, Q86UT5-2 (Q86UT5 other isoform, or with tags, fused parts or gaps): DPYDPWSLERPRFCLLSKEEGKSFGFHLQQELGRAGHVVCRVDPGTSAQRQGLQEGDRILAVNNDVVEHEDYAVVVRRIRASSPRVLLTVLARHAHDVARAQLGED

[15] = biological target: T5, HTRA3, P83110
[16] = biological target: T6, ARHGEF11, O15085
[17] = biological target: T7, SNTG1, Q9NSN8
[18] = biological target: MAGI2_5, Q86UL8
Sequence of MAGI2_5, Q86UL8 (Q86UL8 915-1017): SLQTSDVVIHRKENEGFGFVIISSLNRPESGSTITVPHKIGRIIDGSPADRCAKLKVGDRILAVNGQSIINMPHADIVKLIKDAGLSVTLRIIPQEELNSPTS

[19] = biological target: NOS1, P29475
Sequence of NOS1, P29475 (P29475 9-101): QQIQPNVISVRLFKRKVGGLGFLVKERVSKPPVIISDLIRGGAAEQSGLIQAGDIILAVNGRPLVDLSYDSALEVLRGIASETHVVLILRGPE

[20] = biological target: DLG2_2, Q15700
Sequence of DLG2_2, Q15700 (Q15700 189-283): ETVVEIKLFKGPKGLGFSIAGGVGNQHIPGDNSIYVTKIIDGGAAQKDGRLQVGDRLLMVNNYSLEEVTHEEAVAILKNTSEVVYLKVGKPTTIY

[21] = biological target: T8, HTRA4, P83105
[22] = biological target: T9, SIPA1L2, Q9P2F8
[23] = biological target: Inadl_9, Q8NI35
Sequence of Inadl_9, Q8NI35 (Q8NI35 1530-1615): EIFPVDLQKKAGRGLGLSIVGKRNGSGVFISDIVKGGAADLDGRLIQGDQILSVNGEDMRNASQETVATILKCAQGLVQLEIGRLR

[24] = biological target: T10, LNX2_3, Q8N448
[25] = biological target: T11, MPP7, Q5T2T1
[26] = biological target: T12, SNTG2, Q9NY99

Binder	pKd [1]	pKd [2]	pKd [3]	pKd [4]	pKd [5]	pKd [6]	pKd [7]	pKd [8]	pKd [9]	pKd [10]	pKd [11]	pKd [12]	pKd [13]	pKd [14]	pKd [15]	pKd [16]	pKd [17]	pKd [18]	pKd [19]	pKd [20]	also measured
QGPVETESVV [SLC45A4, Q5BKX6]	4.93	4.49	4.95	below the threshold	3.54	below the threshold	3.63	3.96	4.36	3.81	3.67	below the threshold	3.63	3.48	below the threshold	3.99	4.75	4.55	3.85	4.45	pKd [21]: 3.97; pKd [22]: below the threshold; pKd [23]: 3.75; pKd [24]: below the threshold; pKd [25]: below the threshold; pKd [26]: 4.34
TKGPRGPTRV [SAPCD1, Q5SSQ6]	4.39	4.25	below the threshold	below the threshold	below the threshold	below the threshold	below the threshold	below the threshold	4.09	below the threshold	below the threshold	4.24	below the threshold	below the threshold	below the threshold	4.03	below the threshold	below the threshold	4.2	4.38	pKd [21]: 3.96; pKd [22]: below the threshold; pKd [23]: 4.11; pKd [24]: below the threshold; pKd [25]: below the threshold; pKd [26]: 4.18
SNAGNTATKA [NOSTRIN, Q8IVI9]	below the threshold	below the threshold	below the threshold	below the threshold	below the threshold	below the threshold	below the threshold	below the threshold	below the threshold	below the threshold	below the threshold	below the threshold	below the threshold	below the threshold	below the threshold	below the threshold	below the threshold	below the threshold	below the threshold	below the threshold	pKd [21]: below the threshold; pKd [22]: below the threshold; pKd [23]: below the threshold; pKd [24]: below the threshold; pKd [25]: below the threshold; pKd [26]: below the threshold
SGSLKLMTTV [DACT1, Q9NYF0]	3.49	4.3	below the threshold	below the threshold	below the threshold	below the threshold	below the threshold	below the threshold	3.97	below the threshold	3.69	4.62	below the threshold	below the threshold	below the threshold	4.71	below the threshold	4.51	below the threshold	5.24	pKd [21]: 4.26; pKd [22]: below the threshold; pKd [23]: below the threshold; pKd [24]: below the threshold; pKd [25]: below the threshold; pKd [26]: 3.66
